The values below come from PMC10272179, “Structural insight into the human SID1 transmembrane family member 2 reveals its lipid hydrolytic activity” (Nature Communications, 2023).

Substrate in data set [1]: CCCCCCCCCCCCC/C=C/[C@@H](O)[C@H](CO)NC(=O)CCCCCCCCCCCCCCCCC
As to the kind of experiment: LC-MS quantification of sphingosine, Michaelis-Menten fit. Conditions: 0.3 μM enzyme, 25 mM Tris pH 8.0, 150 mM NaCl, 0.02% DDM, 0.002% CHS micelles, room temperature, 30 min. Format: biochemical, Homo sapiens.

Data set [2] concerns the molecule itself. As to the kind of experiment: cryo-EM structure; purified SIDT2 in GDN micelles; three samples: pH 7.4 (HEPES, 150 mM NaCl), pH 5.5 (MES) and pH 5.5 plus miRNA2911 (RNA:protein 5:1); refinement with C2 symmetry; no conformational change between the three.

B1: human SIDT2 (SID1 transmembrane family member 2) (Homo sapiens) (protein)
chain: HLGVLGPKNVSQKDAEFERTYVDEVNSELVNIYTFNHTVTRNRTEGVRVSVNVLNKQKGAPLLFVVRQKEAVVSFQVPLILRGMFQRKYLYQKVERTLCQPPTKNESEIQFFYVDVSTLSPVNTTYQLRVSRMDDFVLRTGEQFSFNTTAAQPQYFKYEFPEGVDSVIVKVTSNKAFPCSVISIQDVLCPVYDLDNNVAFIGMYQTMTKKAAITVQRKDFPSNSFYVVVVVKTEDQACGGSLPFYPFAEDEPVDQGHRQKTLSVLVSQAVTSEAYVSGMLFCLGIFLSFYLLTVLLACWENWRQKKKTLLVAIDRACPESGHPRVLADSFPGSSPYEGYNYGSFENVSGSTDGLVDSAGTGDLSYGYQGRSFEPVGTRPRVDSMSSVEEDDYDTLTDIDSDKNVIRTKQYLYVADLARKDKRVLRKKYQIYFWNIATIAVFYALPVVQLVITYQTVVNVTGNQDICYYNFLCAHPLGNLSAFNNILSNLGYILLGLLFLLIILQREINHNRALLRNDLCALECGIPKHFGLFYAMGTALMMEGLLSACYHVCPNYTNFQFDTSFMYMIAGLCMLKLYQKRHPDINASAYSAYACLAIVIFFSVLGVVFGKGNTAFWIVFSIIHIIATLLLSTQLYYMGRWKLDSGIFRRILHVLYTDCIRQCSGPLYVDRMVLLVMGNVINWSLAAYGLIMRPNDFASYLLAIGICNLLLYFAFYIIMKLRSGERIKLIPLLCIVCTSVVWGFALFFFFQGLSTWQKTPAESREHNRDCILLDFFDDHDIWHFLSSIAMFGSFLVLLTLDDDLDTVQRDKIYVF
notes: full-length (832 residues, with signal peptide), C-terminal FLAG and His8 tags, expressed in HEK293F, purified in GDN; homodimer
Turning to B1, in data set [1], the Km worked out at 9.0 µM and the turnover number (kcat) is 0.00012 s⁻¹.

B2: human SID1 transmembrane family member 2 (SIDT2), full-length (natural protein, UniProt Q8NBJ9 19-832, looked up)
chain: HLGVLGPKNVSQKDAEFERTYVDEVNSELVNIYTFNHTVTRNRTEGVRVSVNVLNKQKGAPLLFVVRQKEAVVSFQVPLILRGMFQRKYLYQKVERTLCQPPTKNESEIQFFYVDVSTLSPVNTTYQLRVSRMDDFVLRTGEQFSFNTTAAQPQYFKYEFPEGVDSVIVKVTSNKAFPCSVISIQDVLCPVYDLDNNVAFIGMYQTMTKKAAITVQRKDFPSNSFYVVVVVKTEDQACGGSLPFYPFAEDEPVDQGHRQKTLSVLVSQAVTSEAYVSGMLFCLGIFLSFYLLTVLLACWENWRQKKKTLLVAIDRACPESGHPRVLADSFPGSSPYEGYNYGSFENVSGSTDGLVDSAGTGDLSYGYQGRSFEPVGTRPRVDSMSSVEEDDYDTLTDIDSDKNVIRTKQYLYVADLARKDKRVLRKKYQIYFWNIATIAVFYALPVVQLVITYQTVVNVTGNQDICYYNFLCAHPLGNLSAFNNILSNLGYILLGLLFLLIILQREINHNRALLRNDLCALECGIPKHFGLFYAMGTALMMEGLLSACYHVCPNYTNFQFDTSFMYMIAGLCMLKLYQKRHPDINASAYSAYACLAIVIFFSVLGVVFGKGNTAFWIVFSIIHIIATLLLSTQLYYMGRWKLDSGIFRRILHVLYTDCIRQCSGPLYVDRMVLLVMGNVINWSLAAYGLIMRPNDFASYLLAIGICNLLLYFAFYIIMKLRSGERIKLIPLLCIVCTSVVWGFALFFFFQGLSTWQKTPAESREHNRDCILLDFFDDHDIWHFLSSIAMFGSFLVLLTLDDDLDTVQRDKIYVF
modifications: N-linked glycans resolved at N27, N54, N60, N123, N141 and N165
notes: SIDT2, human, full-length cDNA; 832-amino acid protein with a signal peptide, BRD1 (23-152), BRD2 (157-287), CTD between TM1 and TM2, and eleven TMs; Expressed from the full-length cDNA with its own signal peptide; also called apoSIDT2-pH 7.4; apoSIDT2-pH 5.5
As for B2, the “stoichiometry N” value in data set [2] amounted to 2.

For orientation: Km means the concentration of substrate that gives half-maximal velocity. As a reminder, the kcat is the maximal rate divided by the concentration of active sites. By stoichiometry N is commonly meant the number of molecules, sites or subunits per partner or assembly.
